Here are results for five molecules from patent US20260265396A1.

Residue numbers refer to the chain shown, from its start.

The target in assay [1] is truncated hTfR1 of SEQ ID NO:89 (human) (UniProt P02786). As to the kind of experiment: SPR, hTfR1 on CM5, bispecific molecule with scFv module injected. On the technique in general: In SPR one partner is held on a chip, and binding of the other changes the refractive index at the surface.
In assay [2] the target is His10-mTfR1 (SEQ ID NO:53) (mouse) (UniProt Q62351). As to the kind of experiment: indirect ELISA, His10-mTfR1 captured on Ni-coated plate, hybridoma supernatant.
Chain of His10-mTfR1 (SEQ ID NO:53) (mouse) (Q62351 other isoform, or with tags, fused parts or gaps limits assumed): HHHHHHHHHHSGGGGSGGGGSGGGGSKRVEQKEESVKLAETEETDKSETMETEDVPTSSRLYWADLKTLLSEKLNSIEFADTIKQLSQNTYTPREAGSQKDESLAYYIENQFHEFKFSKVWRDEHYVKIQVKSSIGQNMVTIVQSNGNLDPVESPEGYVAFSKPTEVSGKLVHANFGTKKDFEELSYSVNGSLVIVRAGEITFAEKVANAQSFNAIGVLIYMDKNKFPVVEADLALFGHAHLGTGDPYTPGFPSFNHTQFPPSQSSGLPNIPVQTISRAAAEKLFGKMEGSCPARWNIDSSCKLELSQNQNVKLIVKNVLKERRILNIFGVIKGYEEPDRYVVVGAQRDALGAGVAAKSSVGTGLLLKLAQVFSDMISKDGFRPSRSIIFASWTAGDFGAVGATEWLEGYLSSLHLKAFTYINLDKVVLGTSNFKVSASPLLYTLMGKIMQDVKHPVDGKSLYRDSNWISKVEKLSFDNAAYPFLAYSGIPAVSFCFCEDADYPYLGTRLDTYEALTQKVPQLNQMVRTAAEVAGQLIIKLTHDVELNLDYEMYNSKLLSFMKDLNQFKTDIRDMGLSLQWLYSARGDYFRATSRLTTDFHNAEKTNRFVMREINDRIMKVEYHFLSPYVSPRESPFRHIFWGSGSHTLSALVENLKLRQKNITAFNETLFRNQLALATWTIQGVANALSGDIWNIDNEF

Chain of truncated hTfR1 of SEQ ID NO:89 (human) (P02786 other isoform, or with tags, fused parts or gaps limits assumed): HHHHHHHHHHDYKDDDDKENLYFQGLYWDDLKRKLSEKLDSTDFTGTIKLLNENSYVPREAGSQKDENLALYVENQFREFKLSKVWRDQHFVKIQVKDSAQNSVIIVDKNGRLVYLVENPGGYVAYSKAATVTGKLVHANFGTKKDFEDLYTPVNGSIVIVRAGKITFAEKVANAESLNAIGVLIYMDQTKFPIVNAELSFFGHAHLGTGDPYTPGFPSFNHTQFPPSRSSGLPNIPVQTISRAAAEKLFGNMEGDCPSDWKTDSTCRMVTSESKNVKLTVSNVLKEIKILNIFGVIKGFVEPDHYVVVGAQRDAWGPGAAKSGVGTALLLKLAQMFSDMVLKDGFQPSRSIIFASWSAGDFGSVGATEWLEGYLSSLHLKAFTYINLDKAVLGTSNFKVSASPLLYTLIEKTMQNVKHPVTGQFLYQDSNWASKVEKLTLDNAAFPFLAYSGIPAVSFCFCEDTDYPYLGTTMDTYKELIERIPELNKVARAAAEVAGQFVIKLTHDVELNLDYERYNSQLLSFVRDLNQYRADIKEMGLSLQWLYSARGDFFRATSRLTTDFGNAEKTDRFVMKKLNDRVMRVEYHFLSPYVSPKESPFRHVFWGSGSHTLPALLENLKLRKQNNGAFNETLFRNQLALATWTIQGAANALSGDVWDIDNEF

B1: bispecific binding molecule (format of WO2022/258841) with h26D3 scFv module (bispecific antibody, part only; not given: Cargo antibody chains, linkers, domain order, V domains shown, not shown: another chain or arm of the molecule; large carriers; small tags and cut ends)
VH: EVQLVQSGAEVKKPGSSVKVSCKASGYIFTDYNMDWVRQAPGQGLEWIGDINPDYDTTSYNEKFKGRATLTVDKSTSTAYMELSSLRSEDTAVYYCARGGYSGSSYYHPMDYWGQGTLVTVSS
VL: DIQMTQSPSSVSASVGDRVTITCKSSQSLLYSTNQKNYLAWYQQKPGKAPKLLIYWASTRESGVPSRFSGSGSGTDFTLTISSLQPEDFATYYCQQYFIYPRTFGQGTKVEIK
What is called Kd is the equilibrium constant for the complex coming apart. Higher therefore signals a looser complex. In assay [1], B1 returned a Kd of 10 nM.

B2: bispecific binding molecule (format of WO2022/258841) with h26D3 HC6 scFv module (bispecific antibody, part only; not given: Cargo antibody chains, linkers, domain order, V domains shown, not shown: another chain or arm of the molecule; large carriers; small tags and cut ends)
VH: B1 VH with Y55A
VL: B1 VL
Consider B2, for which the dissociation constant Kd in assay [1] fell in the range of 100 to 200 nM.

B3: bispecific binding molecule (format of WO2022/258841) with h26D3 LC5 scFv module (bispecific antibody, part only; not given: cargo antibody chains, linkers, format, V domains shown, not shown: another chain or arm of the molecule; large carriers; small tags and cut ends)
VH: B1 VH
VL: B1 VL with Y97A
B3 gave a Kd in assay [1] of 400 to 500 nM.

B4: bispecific binding molecule (format of WO2022/258841) with h26D3 LC1 scFv module (bispecific antibody, part only; not given: Cargo antibody chains, linkers, domain order, V domains shown, not shown: another chain or arm of the molecule; large carriers; small tags and cut ends)
VH: B1 VH
VL: B1 VL with Y31A
For B4, in assay [1], the dissociation constant (Kd) was 40 nM.

B5: mouse monoclonal antibody 26D3 (antibody, mouse IgG2a, V domains shown)
VH: EVQLQQFGVELVKPGASVKISCKASGYIFTDYNMDWVKQSHGKSLEWIGDINPDYDTTSYNEKFKGKATLTVDKSSSTAYMELRSLTSEDTAVYYCARGGYSGSSYYHPMDYWGQGTSVTVSS
VL: DIVMSQSPSSLAVSVGEKITMSCKSSQSLLYSTNQKNYLAWYQQKPGQSPELLIYWASTRESGVPDRFTGSGSGTDFTLTISNVRAEDLAVYYCQQYFIYPRTFGGGTKLEIK
Take B5: the OD450 (indirect ELISA) in assay [2] is above 0.2 OD.
